# From US20100120681A1 (Ablynx, published 2010)
# Where a chain is given by its changes, count along the chain named.
# T1: E. coli expressed VEGF109 (human, UniProt P15692 207-315)
# T1 construct: also called hVEGF109
# T1 sequence: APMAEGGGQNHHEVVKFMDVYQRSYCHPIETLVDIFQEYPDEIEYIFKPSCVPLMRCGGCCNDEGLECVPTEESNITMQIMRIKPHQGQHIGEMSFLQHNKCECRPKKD
# B1: PVEGFPMP42A5 (VHH)
# VHH: EVQLVESGGGLVQAGGSLRLSCAASGRTFSGVDVAWFRQAPGKEREFVAALAWSGIRTYYAVSVKGRFTISRGDPNDTVYLQMTSLKPEDTAVYYCATGRASRTSDYYTDRIYDSWGQGAQVTVSS
# notes: tested as periplasmic extract; not shown: C-terminal c-myc tag and (His)6 tag from the vector
# B2: PVEGFPMP42A3 (VHH)
# VHH: B1 VHH with Q3P, L4M
# notes: as for B1
# B3: PVEGFPMP42C1 (VHH)
# VHH: B1 VHH with D74N, S102Y, T104G
# notes: as for B1
# B4: PVEGFPMP42F10 (VHH)
# VHH: B1 VHH with P41T
# notes: as for B1
# B5: PVEGFPMP42E3 (VHH)
# VHH: EVQLVESGGGLVQAGGALRLSCAASGRTFETYRMGWFRQAPGKEREFVALINWSSGTTIYADSVKGRFTISGDNAKDTVYLEMNSLKPEDTAVYYCAVGRRWSGSYYSALAYQYWGQGTQVTVSS
# notes: as for B1
# B6: PVEGFPMP42D5 (VHH)
# VHH: B5 VHH with Q13H, T28A, I59V
# notes: as for B1
# B7: PVEGFPMP42D7 (VHH)
# VHH: B5 VHH with L20P, I59V
# notes: as for B1
# B8: PVEGFPMP42D10 (VHH)
# VHH: B5 VHH with T57I, I59V, A61L, R101A
# notes: as for B1
# B9: PVEGFPMP42C7 (VHH)
# VHH: B5 VHH with Q117K
# notes: as for B1
# B10: PVEGFPMP42C10 (VHH)
# VHH: B5 VHH with A24V, T31S, A49S, T57K, R101A
# notes: as for B1
# B11: PVEGFPMP42E4 (VHH)
# VHH: B5 VHH with V5M, A17S, A24V, T31S, A49S, T57K, R101A
# notes: as for B1
# B12: PVEGFPMP42H9 (VHH)
# VHH: B5 VHH with I59V
# notes: as for B1
# B13: PVEGFPMP42B10 (VHH)
# VHH: EVQLVESGGGLVQAGGSLRLSCTASGRALDTYTVTWFRQTPGKEREFVASNRWNAKPYTTDSVKGRFTISRDNAKNTVYLQMNSLKPEDTAVYYCAADLTTWADGPYRYWGQGTQVTVSS
# notes: as for B1
# B14: PVEGFPMP42F1 (VHH)
# VHH: B13 VHH with A14P, T23A, E44T, N51V, L99P
# notes: as for B1
# B15: PVEGFPMP42C5 (VHH)
# VHH: B13 VHH with E1K, T23A, N51I, V92I
# notes: as for B1
# B16: PVEGFPMP42H5 (VHH)
# VHH: B13 VHH with T59V
# notes: as for B1
# B17: PVEGFPMP42E2 (VHH)
# VHH: B13 VHH with T23A, E44G, V48L, N51I, I69M, K86R, L99P
# notes: as for B1
# B18: PVEGFPMP42G5 (VHH)
# VHH: B13 VHH with Q3H, T23A, E44T, N51V, L99P
# notes: as for B1
# Molecular target: T1, E. coli expressed VEGF109
# Test: SPR Biacore 3000, periplasmic extract over VEGF109-coated CM5 chip
# Method: (§1) Analysis of the results was done using BIAevaluation software. Off-rates were determined by the ‘fit kinetics separate ka/kd’ model, langmuir dissociation. A time interval of ±100s was used for the fitting.
row,koff [s⁻¹],Binder
1,0.00167,B1
2,0.00284,B2
3,0.00825,B3
4,0.00176,B4
5,0.000689,B5
6,0.000368,B6
7,0.000176,B7
8,0.00411,B8
9,0.00061,B9
10,0.00753,B10
11,0.00774,B11
12,0.000315,B12
13,0.000227,B13
14,0.000278,B14
15,0.000448,B15
16,0.000315,B16
17,0.000134,B17
18,0.000251,B18

# Molecular target: T2, hVEGF165 (R&D Systems) (human, UniProt P15692 27-191)
# T2 construct: mature; also called biotinylated hVEGF165
# Test: SPR Biacore 3000, periplasmic extract over VEGF165-coated CM5 chip
# Method: as §1
# T2 sequence (P15692 other isoform, or with tags, fused parts or gaps): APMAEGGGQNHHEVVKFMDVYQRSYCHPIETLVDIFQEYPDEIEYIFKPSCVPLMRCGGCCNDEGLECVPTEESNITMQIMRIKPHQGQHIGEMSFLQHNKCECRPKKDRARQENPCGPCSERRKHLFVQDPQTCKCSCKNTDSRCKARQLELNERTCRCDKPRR
row,koff [s⁻¹],Binder
1,0.00154,B1
2,0.00259,B2
3,0.00835,B3
4,0.00165,B4
5,0.0015,B5
6,0.00147,B6
7,0.00094,B7
8,0.00634,B8
9,0.00151,B9
10,0.0168,B10
11,0.02,B11
12,0.00149,B12
13,0.000362,B13
14,0.000501,B14
15,0.000641,B15
16,0.000528,B16
17,0.000311,B17
18,0.000447,B18
